According to patent publication US20240043547A1:

B1: PRO1901 (scFv)
scFv: AFQLTQSPSSLSASVGDRVTITCQASQSIDSWLAWYQQKPGKPPKLLIYQASKLASGVPSRFSGSGSGTDYTLTISSLQPEDFATYYCQTYYGGGHIGWGFGTGTKVTVLGGGGGSGGGGSGGGGSGGGGSQSQLVESGGGSVQPGGSLRLSCAASGFSFSANYWICWVRQAPGKGLEWIVCIYIGSRADTYYAPWAKGRFTISKDNSKNTVYLQMNSLRAEDTATYFCARFSSGIYDLDRFFLWGQGTQVTVSS
B2: PRO1902 (scFv)
scFv: AFQLTQSPSSLSASVGDRVTITCQASQSIDSWLAWYQQKPGKPPKLLIYQASKLASGVPSRFSGSGSGTDYTLTISSLQPEDFATYYCQTYYGGGHIGWGFGTGTKVTVLGGGGGSGGGGSGGGGSGGGGSQSQLVESGGGLVQPGGSLRLSCAASGFSFSANYWICWVRQAPGKGLEWIVCISIGSRADTYYAPWAKGRFTISKDNSKNTVYLQMNSLRAEDTAVYFCARFSSGIYDLDRFFLWGQGTLVTVSS
B3: PRO1903 (scFv)
scFv: AFQLTQSPSSLSASVGDRVTITCQASQSIESWLAWYQQKPGKPPKLLIYQASKLASGVPSRFSGSGSGTDYTLTISSLQPEDFATYYCQTYYGGGHIGWGFGTGTKVTVLGGGGGSGGGGSGGGGSGGGGSQSQLVESGGGLVQPGGSLRLSCAASGFSFSANYWICWVRQAPGKGLEWIVCIYIGSRADTYYAPWAKGRFTISKDNSKNTVYLQMNSLRAEDTAVYFCARFSSGIYDLDRFFLWGQGTLVTVSS

What was measured:
human IL-31 (human) = human IL-31 (human) (UniProt Q6EBC2); assay: cell-based or functional assay
[1] = target: cynomolgus IL-31-His (cynomolgus monkey (Macaca fascicularis)); assay: SPR (Biacore T200), cynomolgus IL-31-His captured via anti-His antibody, scFv as analyte

human IL-31 (human), sequence (Q6EBC2 24-164 limits assumed): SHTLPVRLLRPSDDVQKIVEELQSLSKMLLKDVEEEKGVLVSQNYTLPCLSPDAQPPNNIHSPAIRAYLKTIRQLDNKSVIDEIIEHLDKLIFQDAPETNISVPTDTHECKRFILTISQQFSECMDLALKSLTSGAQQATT

Row | Binder | IC50 [ng/ml], neutralization of hIL-31-induced signaling in IL-31RA/OSMR dimerization assay (human IL-31 (human)) | rel. IC50 (IC50, BMS-981164/IC50, test sample), IL-31RA/OSMR dimerization assay (human IL-31 (human)) | Kd [1] | koff [1] | kon [1]
1 | B1 | 8.07 ng/mL | 0.78 | 1.14 nM | 0.000569 s⁻¹ | 501000 M⁻¹ s⁻¹
2 | B2 | 371 ng/mL | 0.03 | 3.38 nM | 0.00247 s⁻¹ | 731000 M⁻¹ s⁻¹
3 | B3 | 7.98 ng/mL | 1.49 | 1.39 nM | 0.000605 s⁻¹ | 434000 M⁻¹ s⁻¹
